Common to all, as to experiment: BLI
In series [1] the target is T1, hPolεCD (E. coli) (Homo sapiens, UniProt Q07864 28-1194).
In series [2] the target is T1, hPolεCD (E. coli). The source holds these as a separate data set.
The target in a further series is hPolεCD (insect) (Homo sapiens, UniProt Q07864 28-1194).

Where two headings read alike, the source gives them in different places.

T1 sequence (Q07864 28-1194): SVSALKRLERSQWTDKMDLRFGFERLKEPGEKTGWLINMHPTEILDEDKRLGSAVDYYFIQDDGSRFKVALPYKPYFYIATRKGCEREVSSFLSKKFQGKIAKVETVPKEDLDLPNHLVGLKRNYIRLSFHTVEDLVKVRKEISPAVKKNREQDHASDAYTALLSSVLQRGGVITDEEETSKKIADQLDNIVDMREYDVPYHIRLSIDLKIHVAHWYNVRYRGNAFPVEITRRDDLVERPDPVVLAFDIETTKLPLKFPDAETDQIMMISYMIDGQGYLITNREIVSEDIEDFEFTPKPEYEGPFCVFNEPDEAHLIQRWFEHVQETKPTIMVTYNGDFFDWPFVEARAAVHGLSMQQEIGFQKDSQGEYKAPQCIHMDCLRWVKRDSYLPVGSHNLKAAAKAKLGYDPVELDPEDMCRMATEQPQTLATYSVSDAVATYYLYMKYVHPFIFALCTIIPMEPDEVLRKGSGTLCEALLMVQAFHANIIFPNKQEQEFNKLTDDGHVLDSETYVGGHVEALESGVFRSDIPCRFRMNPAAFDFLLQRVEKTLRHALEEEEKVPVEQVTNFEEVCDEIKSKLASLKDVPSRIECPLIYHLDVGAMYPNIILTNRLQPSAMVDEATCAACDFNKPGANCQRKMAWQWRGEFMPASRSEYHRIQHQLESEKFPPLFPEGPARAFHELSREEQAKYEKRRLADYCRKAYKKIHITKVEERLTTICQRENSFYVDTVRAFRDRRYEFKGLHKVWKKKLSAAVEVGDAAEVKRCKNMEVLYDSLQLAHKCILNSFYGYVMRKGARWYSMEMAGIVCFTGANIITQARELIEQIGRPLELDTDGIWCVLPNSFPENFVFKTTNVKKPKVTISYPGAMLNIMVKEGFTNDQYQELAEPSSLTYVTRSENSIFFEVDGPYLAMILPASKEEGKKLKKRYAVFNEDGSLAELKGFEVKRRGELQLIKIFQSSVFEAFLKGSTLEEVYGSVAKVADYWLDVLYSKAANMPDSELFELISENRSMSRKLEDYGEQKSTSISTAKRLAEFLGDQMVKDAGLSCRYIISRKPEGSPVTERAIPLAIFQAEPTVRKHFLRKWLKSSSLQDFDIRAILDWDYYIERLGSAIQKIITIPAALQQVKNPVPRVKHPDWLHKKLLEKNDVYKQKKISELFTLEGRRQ
hPolεCD (insect), sequence (Q07864 28-1194): as above

B1: Octet template:primer 23/11 (dsDNA)
DNA 1: AATACATAAGCGCTCCAGGCAAT
DNA 2: GCCTGGAGCGC
modifications: 3' dideoxycytidine on primer
What is called Kd is the constant that tells how readily two partners part at equilibrium. A high value points to a looser complex. With B1, the Kd with hPolεCD (E. coli) [1] was found to be 3260 ± 386 nM; in the series with hPolεCD (E. coli) [2], 167 ± 24 nM; in the series with hPolεCD (insect), 213 ± 43 nM.

(Values after doi:10.1101/2022.05.05.490830.)
